Data: the supplement of paper PMC10567573

B1: CPN1 (parent)
chain: RGVRRTASTPTPDDKLFQKLAKVY

Variants of: B1
Assay: protein stability index of a GFP-peptide fusion (GPS, HEK-293T) (PSI 1-6); higher = more stable
Conditions: c terminus: a fixed tail appended
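Note: lentivirally expressed fusions sorted by FACS into six bins by GFP to DsRed ratio, PSI derived from sequencing read proportions per bin multiplied by bin number.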

Variant | protein stability index
RGVRRTASTPTPDDKLCQKLAKVY | 2.96
RGVRRTASTPTPDDKLDQKLAKVY | 3.32
RGVRRTASTPTPDDKLAQKLAKVY | 3.19
RGVRRTASTPTPDDKLMQKLAKVY | 3
RGVRRTASTPTPDDKLHQKLAKVY | 2.63
RGVRRTASTPTPDDKLQQKLAKVY | 3.21
RGVRRTASTPTPDDKLWQKLAKVY | 2.26
RGVRRTASTPTPDDKLEQKLAKVY | 3.95
RGVRRTASTPTPDDKLYQKLAKVY | 2.28
RGVRRTASTPTPDDKLVQKLAKVY | 2.58
RGVRRTASTPTPDDKLKQKLAKVY | 3.5
RGVRRTASTPTPDDKLNQKLAKVY | 2.88
RGVRRTASTPTPDDKLIQKLAKVY | 2.53
RGVRRTASTPTPDDKLRQKLAKVY | 3.43
RGVRRTASTPTPDDKLSQKLAKVY | 2.94
RGVRRTASTPTPDDKLPQKLAKVY | 2.84
RGVRRTASTPTPDDKLTQKLAKVY | 3.67
RGVRRTASTPTPDDKLFQKLAEVY | 1.87
RGVRRTASTPTPDDKLFQKLACVY | 1.8
RGVRRTASTPTPDDKLFQKLARVY | 2.07
RGVRRTASTPTPDDKLFQKLAHVY | 1.98
RGVRRTASTPTPDDKLFQKLAMVY | 2.04
RGVRRTASTPTPDDKLFQKLAQVY | 1.7
RGVRRTASTPTPDDKLFQKLAPVY | 2.37

Variant | protein stability index
RGVRRTASTPTPDDKLFQKLAAVY | 2.19
RGVRRTASTPTPDDKLFQKLAFVY | 1.96
RGVRRTASTPTPDDKLFQKLAVVY | 2.14
RGVRRTASTPTPDDKLFQKLANVY | 2.4
RGVRRTASTPTPDDKLFQKLAIVY | 1.45
RGVRRTASTPTPDDKLFQKLAGVY | 2.82
RGVRRTASTPTPDDKLFQKLADVY | 1.95
RGVRRTASTPTPDDKLFQKLATVY | 1.96
RGVRRTASTPTPDDKLFQKLAWVY | 2.19
RGVRRTASTPTPDDKLFQKLALVY | 2.73
RGVRRTASTPTPDDKLFQKLASVY | 1.93
RGVRRTASTPTPDDKLFQKLAYVY | 1.97
RGVRRTASTPTPDDKLFQKSAKVY | 3.7
RGVRRTASTPTPDDKLFQKGAKVY | 3.86
RGVRRTASTPTPDDKLFQKKAKVY | 3.68
RGVRRTASTPTPDDKLFQKQAKVY | 3.17
RGVRRTASTPTPDDKLFQKEAKVY | 3.85
RGVRRTASTPTPDDKLFQKFAKVY | 1.82
RGVRRTASTPTPDDKLFQKHAKVY | 3.22
RGVRRTASTPTPDDKLFQKAAKVY | 3.4
RGVRRTASTPTPDDKLFQKMAKVY | 2.23
RGVRRTASTPTPDDKLFQKNAKVY | 3.48
RGVRRTASTPTPDDKLFQKCAKVY | 2.56
RGVRRTASTPTPDDKLFQKIAKVY | 1.92

Variant | protein stability index
RGVRRTASTPTPDDKLFQKYAKVY | 2.4
RGVRRTASTPTPDDKLFQKRAKVY | 3.3
RGVRRTASTPTPDDKLFQKPAKVY | 3.58
RGVRRTASTPTPDDKLFQKDAKVY | 4.06
RGVRRTASTPTPDDKLFQKVAKVY | 3.48
RGVRRTASTPTPDDKLFQKWAKVY | 2.58
RGVRRTASTPTPDDKLFQKTAKVY | 3.52
RGVRRTASTPTPDVKLFQKLAKVY | 2.19
RGVRRTASTPTPDYKLFQKLAKVY | 1.48
RGVRRTASTPTPDSKLFQKLAKVY | 2.63
RGVRRTASTPTPDWKLFQKLAKVY | 1.68
RGVRRTASTPTPDTKLFQKLAKVY | 2.38
RGVRRTASTPTPDDKLFQKLAKVC | 2.22
RGVRRTASTPTPDDKLFQKLAKVI | 2.6
RGVRRTASTPTPDDKLFQKLAKVM | 1.66
RGVRRTASTPTPDDKLFQKLAKVN | 3.33
RGVRRTASTPTPDDKLFQKLAKVG | 3
RGVRRTASTPTPDDKLFQKLAKVD | 3.48
RGVRRTASTPTPDDKLFQKLAKVH | 3.1
RGVRRTASTPTPDDKLFQKLAKVF | 1.95
RGVRRTASTPTPDDKLFQKLAKVP | 2.72
RGVRRTASTPTPDDKLFQKLAKVS | 2.72
RGVRRTASTPTPDDKLFQKLAKVR | 2.29
RGVRRTASTPTPDDKLFQKLAKVL | 2.49

Variant | protein stability index
RGVRRTASTPTPDDKLFQKLAKVA | 2.51
RGVRRTASTPTPDDKLFQKLAKVQ | 2.92
RGVRRTASTPTPDDKLFQKLAKVK | 3.95
RGVRRTASTPTPDDKLFQKLAKVE | 3.49
RGVRRTASTPTPDDILFQKLAKVY | 1.76
RGVRRTASTPTPDDCLFQKLAKVY | 1.95
RGVRRTASTPTPDDHLFQKLAKVY | 1.75
RGVRRTASTPTPDDMLFQKLAKVY | 1.33
RGVRRTASTPTPDDGLFQKLAKVY | 2
RGVRRTASTPTPDDLLFQKLAKVY | 1.8
RGVRRTASTPTPDDRLFQKLAKVY | 1.78
RGVRRTASTPTPDDNLFQKLAKVY | 1.7
RGVRRTASTPTPDDELFQKLAKVY | 2.2
RGVRRTASTPTPDDSLFQKLAKVY | 2.02
RGVRRTASTPTPDDQLFQKLAKVY | 2.08
RGVRRTASTPTPDDYLFQKLAKVY | 1.63
RGVRRTASTPTPDDTLFQKLAKVY | 1.7
RGVRRTASTPTPDDALFQKLAKVY | 1.58
RGVRRTASTPTPDDDLFQKLAKVY | 1.99
RGVRRTASTPTPDDFLFQKLAKVY | 3.23
RGVRRTASTPTPDDPLFQKLAKVY | 2.12
RGVRRTASTPTPDDWLFQKLAKVY | 1.93
